Reference: patent publication US10450368 (DUKE UNIVERSITY, dated 2019)

T1: SSB (UniProt P05455 1-408)
T1 sequence: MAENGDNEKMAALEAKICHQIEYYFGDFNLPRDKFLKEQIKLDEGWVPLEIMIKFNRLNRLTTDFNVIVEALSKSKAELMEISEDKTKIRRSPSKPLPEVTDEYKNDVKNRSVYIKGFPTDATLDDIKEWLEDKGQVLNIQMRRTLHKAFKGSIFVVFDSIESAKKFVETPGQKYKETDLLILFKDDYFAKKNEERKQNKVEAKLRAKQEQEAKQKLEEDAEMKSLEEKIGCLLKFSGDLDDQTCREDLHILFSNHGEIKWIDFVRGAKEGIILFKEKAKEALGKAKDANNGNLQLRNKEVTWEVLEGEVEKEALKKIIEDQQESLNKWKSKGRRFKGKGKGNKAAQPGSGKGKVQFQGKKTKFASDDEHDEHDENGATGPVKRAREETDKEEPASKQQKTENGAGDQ

T2: Centromere B (UniProt P07199 1-599)
T2 construct: also called Cent B
T2 sequence: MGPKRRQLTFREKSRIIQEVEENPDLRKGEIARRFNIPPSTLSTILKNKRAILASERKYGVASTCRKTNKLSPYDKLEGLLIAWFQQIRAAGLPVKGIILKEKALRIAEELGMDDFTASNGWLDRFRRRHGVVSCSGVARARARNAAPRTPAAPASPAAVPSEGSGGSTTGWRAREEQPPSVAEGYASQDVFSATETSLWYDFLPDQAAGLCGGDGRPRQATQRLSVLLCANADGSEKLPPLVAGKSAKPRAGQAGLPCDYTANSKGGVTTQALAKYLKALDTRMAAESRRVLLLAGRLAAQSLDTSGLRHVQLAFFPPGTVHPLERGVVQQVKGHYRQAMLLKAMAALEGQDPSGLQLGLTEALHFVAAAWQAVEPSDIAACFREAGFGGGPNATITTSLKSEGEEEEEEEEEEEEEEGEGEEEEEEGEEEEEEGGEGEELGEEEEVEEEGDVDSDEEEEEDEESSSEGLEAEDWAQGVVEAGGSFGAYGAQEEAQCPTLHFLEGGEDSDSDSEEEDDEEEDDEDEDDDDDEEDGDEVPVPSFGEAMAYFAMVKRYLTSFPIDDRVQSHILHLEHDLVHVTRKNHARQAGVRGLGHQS

T3: Scl-70 (UniProt P11387 1-765)
T3 sequence: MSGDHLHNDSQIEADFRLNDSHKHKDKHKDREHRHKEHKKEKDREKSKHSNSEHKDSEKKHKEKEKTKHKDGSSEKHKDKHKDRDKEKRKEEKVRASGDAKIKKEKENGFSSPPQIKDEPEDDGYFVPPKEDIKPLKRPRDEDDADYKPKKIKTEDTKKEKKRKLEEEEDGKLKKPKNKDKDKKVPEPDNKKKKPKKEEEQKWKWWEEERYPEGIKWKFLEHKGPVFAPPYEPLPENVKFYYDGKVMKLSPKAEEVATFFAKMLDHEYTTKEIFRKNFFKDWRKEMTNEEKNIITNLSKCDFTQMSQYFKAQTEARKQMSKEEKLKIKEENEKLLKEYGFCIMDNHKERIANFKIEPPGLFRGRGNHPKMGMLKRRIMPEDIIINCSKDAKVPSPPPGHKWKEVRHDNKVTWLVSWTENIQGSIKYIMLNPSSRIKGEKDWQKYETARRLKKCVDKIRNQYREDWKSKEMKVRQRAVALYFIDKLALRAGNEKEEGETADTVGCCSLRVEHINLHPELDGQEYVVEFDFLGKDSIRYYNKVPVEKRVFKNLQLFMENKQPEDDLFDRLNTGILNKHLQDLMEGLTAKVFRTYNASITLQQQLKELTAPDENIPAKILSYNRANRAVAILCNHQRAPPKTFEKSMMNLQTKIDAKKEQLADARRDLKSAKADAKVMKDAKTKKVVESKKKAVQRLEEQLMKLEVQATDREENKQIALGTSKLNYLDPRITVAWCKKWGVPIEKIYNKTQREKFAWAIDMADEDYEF

T4: Jo-1 (UniProt P12081 1-509)
T4 sequence: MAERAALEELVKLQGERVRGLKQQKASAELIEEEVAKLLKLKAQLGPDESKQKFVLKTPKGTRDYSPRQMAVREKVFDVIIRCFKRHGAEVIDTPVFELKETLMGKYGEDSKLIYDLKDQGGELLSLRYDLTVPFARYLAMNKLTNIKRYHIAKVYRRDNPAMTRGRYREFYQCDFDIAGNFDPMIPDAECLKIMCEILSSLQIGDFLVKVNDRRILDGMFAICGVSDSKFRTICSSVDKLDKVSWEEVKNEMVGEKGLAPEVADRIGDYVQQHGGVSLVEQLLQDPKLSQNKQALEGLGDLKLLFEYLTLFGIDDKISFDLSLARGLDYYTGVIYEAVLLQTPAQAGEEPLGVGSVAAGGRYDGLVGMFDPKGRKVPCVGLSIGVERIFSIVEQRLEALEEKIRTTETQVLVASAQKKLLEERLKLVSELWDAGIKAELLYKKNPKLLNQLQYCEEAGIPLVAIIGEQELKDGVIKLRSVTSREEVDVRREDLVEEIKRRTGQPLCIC


Tests used:
CH505.TF mutant gp120 M6 = target: T5, CH505.TF mutant gp120 M6 (HIV-1); experiment: ELISA
T5 construct: domain: gp120

CH505.M10D8gp120 = experiment: ELISA
CH505.M5D8gp120293F = experiment: ELISA
[1] = target: T6, CH505.TF mutant gp120 M20 (HIV-1); experiment: ELISA
T6 construct: domain: gp120

CH505.M21D8gp120/293F = experiment: ELISA
CH505.TF mutant gp120 M8 = target: T7, CH505.TF mutant gp120 M8 (HIV-1); experiment: ELISA
T7 construct: domain: gp120

CH505.M11D8gp120/293F = experiment: ELISA
CH505.M9D8gp120/293F = experiment: ELISA
CH505.M19D8gp120 = experiment: ELISA
CH505.M7D8gp120/293F = experiment: ELISA
CH505w136.B18D8gp120 = experiment: ELISA
CH505w020.14D8gp120 = target: T8, CH505w020.14D8gp120; experiment: ELISA
T8 construct: also called CH505w20.14 gp120

CH0505_CON D7gp120/293i = experiment: ELISA
CH505w030.20D8gp120/293F = target: T9, CH505w030.20D8gp120/293F; experiment: ELISA
T9 construct: also called CH505w30.20 gp120

CH505.w30.12D8gp120 = target: T10, CH505.w30.12D8gp120; experiment: ELISA
T10 construct: also called CH505w30.12 gp120

SSB = target: T1, SSB; experiment: ELISA, LogAUC grade
Centromere B = target: T2, Centromere B; experiment: ELISA, LogAUC grade
Scl-70 = target: T3, Scl-70; experiment: ELISA, LogAUC grade
Jo-1 = target: T4, Jo-1; experiment: ELISA, LogAUC grade

Row | Binder | LogAUC (CH505.TF mutant gp120 M6) | LogAUC (CH505.M10D8gp120) | LogAUC (CH505.M5D8gp120293F) | LogAUC [1] | LogAUC (CH505.M21D8gp120/293F) | LogAUC (CH505.TF mutant gp120 M8) | LogAUC (CH505.M11D8gp120/293F) | LogAUC (CH505.M9D8gp120/293F) | LogAUC (CH505.M19D8gp120) | LogAUC (CH505.M7D8gp120/293F) | LogAUC (CH505w136.B18D8gp120) | LogAUC (CH505w020.14D8gp120) | LogAUC (CH0505_CON D7gp120/293i) | LogAUC (CH505w030.20D8gp120/293F) | LogAUC (CH505.w30.12D8gp120) | binding result (SSB) | binding result (Centromere B) | binding result (Scl-70) | binding result (Jo-1)
1 | CH235 UCA (antibody, V domains shown, also called unmutated common ancestor of the CH235 lineage) VH: QVQLVQSGAEVKKPGASVKVSCKASGYTFTSYYMHWVRQAPGQGLEWMGIINPSGGSTSYAQKFQGRVTMTRDTSTSTVYMELSSLRSEDTAVYYCARDVGTEGSLLHFDYWGQGTLVTVSS VL: not shown | 0 | 0 | 0.24 | 0 | 0 | 0 | 0 | 0 | 0 | 0 | 0 | 0 | 0 | 0 | 0 | no binding | no binding | no binding | no binding
2 | CH556 (antibody, V domains shown, also called CH235.11) VH: QVQLVQSGGTVKSPGTSVTLSCKTSGYNFIDYYIHWVRRAPGQRPELMGYIDPSHGRPDYEGKFRDRISLYRDTSTSVVYMDVRGLRLDDTALYYCVRGGGVEVSSNHYDHWGPGTMVFVSP VL: ETTLTQSPDTLSASPGERVTLSCRAAQSVGSQVAWFRHIRGQPPRLLISGASTRAAGVPARFSGSGSGTDFTLTISGMQSEDFAEYFCQQYHMWWTFGQGTRVDKN | 0.09 | 1.06 | 1.26 | 0.28 | 0.1 | 0.29 | 0.11 | 0.23 | 0.09 | 0 | 0.11 | 0.11 | 0.26 | 0.69 | 0 | – | – | no binding | –
3 | CH555 (antibody, V domains shown, also called CH235.10) VH: QVQLVQSGATVKKPRASVTLSCRTSGYNFIDYFIHWVRRAPGQRLEVMGYIDPSRGRPDYAPNFRDRVSLYRDTSMSIVYLDLRDLTPDDTAIYYCVRSEGTEGTVLHYDHWGPGTRVTVSP VL: EIVLTQSPDTLSASPGERVTLSCRASQSVGTKVAWYRHVRGQPPRLLIYGASTRAAGIPARFSGGGSGTNFTLIINNFQSEDFAEYLCQQYKSWWTFGQGTKVDNK | 5.67 | 1.06 | 2.62 | 0 | 0 | 0 | 5.05 | 0.07 | 0 | 0.09 | 5.54 | 5.63 | 7.23 | 5.62 | 0 | – | – | no binding | –
4 | CH235.13 (antibody, V domains shown) VH: QVQLVQSGGGVKRPGSTTTISCVASGYSFNDYYIHWVRQAPGQGLEVLGFIDPSNGRTNYAGAFGDRFSMYRDKSMETLYMDLRNLRSDDTAMYYCVRNVGTAGSLLHYDHWGTGSKIIVSS VL: EIVLTQSPATLSASPGERVTLTCRASRGVRNNVAWYQHNVGQSPRLLIYDASTRAPGIPARFSGSASGTEFTLAISSIQSEDFTLYYCHQYNNWWTFGQGTRVDIN | 6.07 | 6.38 | 6.53 | 0 | 0 | 0 | 5.35 | 0 | 2.89 | 0 | 1.76 | 6.14 | 6.23 | 5.41 | 1.05 | – | – | no binding | –
